T1: RIG-I (UniProt O95786 1-925)
T1 sequence: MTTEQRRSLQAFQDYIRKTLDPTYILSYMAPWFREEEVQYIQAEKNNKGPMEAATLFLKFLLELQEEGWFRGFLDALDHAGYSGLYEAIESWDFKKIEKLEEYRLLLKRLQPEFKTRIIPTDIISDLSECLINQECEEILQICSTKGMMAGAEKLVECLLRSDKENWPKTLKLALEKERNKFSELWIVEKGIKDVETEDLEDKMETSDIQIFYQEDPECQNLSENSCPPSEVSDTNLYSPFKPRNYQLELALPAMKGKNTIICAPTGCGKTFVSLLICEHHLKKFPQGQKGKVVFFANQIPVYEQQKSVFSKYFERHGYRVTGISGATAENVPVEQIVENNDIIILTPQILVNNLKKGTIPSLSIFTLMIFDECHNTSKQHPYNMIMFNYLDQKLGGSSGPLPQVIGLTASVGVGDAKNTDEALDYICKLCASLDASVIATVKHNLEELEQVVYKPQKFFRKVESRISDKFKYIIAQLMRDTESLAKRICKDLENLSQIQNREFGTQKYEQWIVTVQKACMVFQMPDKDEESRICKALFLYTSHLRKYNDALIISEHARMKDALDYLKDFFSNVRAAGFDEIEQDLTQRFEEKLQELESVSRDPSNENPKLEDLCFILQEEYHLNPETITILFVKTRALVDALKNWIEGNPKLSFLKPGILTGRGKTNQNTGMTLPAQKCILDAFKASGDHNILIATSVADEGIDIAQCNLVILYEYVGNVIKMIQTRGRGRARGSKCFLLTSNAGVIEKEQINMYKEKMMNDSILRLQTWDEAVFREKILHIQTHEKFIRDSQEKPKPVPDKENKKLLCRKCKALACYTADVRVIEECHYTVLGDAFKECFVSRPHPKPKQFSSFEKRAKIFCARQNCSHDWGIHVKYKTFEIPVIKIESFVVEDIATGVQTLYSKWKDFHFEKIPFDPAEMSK


Molecular target: T1, RIG-I
Assay: competition (fluorescence polarization); 0.5 mM ATP; vs labeled 5' PPP ds39; 50 mM MOPS pH 7.4, 5 mM DTT, 5 mM MgCl2, 0.01% Tween20; 25 C (ATPase, 2 mM ATP; FP, 0.5 mM ATP); EMSA 4 C with 2 mM ATP, 75 nM RIG-I, 25 nM RNA
Conditions: protein: recombinant; tags: none (6xHis-SUMO removed by Ulp1); label: none; single-stranded

Row | Binder | binding result
1 | AGUUGGUGGUUGUUGUGUGUUUGUGGUUGGUUUGUUUGG (ssRNA, 5' triphosphate) [5' PPP ss39] | no binding
2 | AGUUGGUGGUUGUUGUGUGUUUGUGGUUGGUUUGUUUGG (ssRNA, 5' NAD+ cap) [5' NAD+ ss39] | no binding
